Laboratory results from patent publication US20230074735.

Target: Taq DNA polymerase (Thermus aquaticus) (UniProt P19821)
Experiment: inhibition
Conditions: contains RNA cleavage site; about half amplicon yield; activity increased to some degree with 10 uM Pb2+; mechanism unclear, possibly stem recognition by polymerase

Chain of Taq DNA polymerase (Thermus aquaticus) (P19821 whole entry): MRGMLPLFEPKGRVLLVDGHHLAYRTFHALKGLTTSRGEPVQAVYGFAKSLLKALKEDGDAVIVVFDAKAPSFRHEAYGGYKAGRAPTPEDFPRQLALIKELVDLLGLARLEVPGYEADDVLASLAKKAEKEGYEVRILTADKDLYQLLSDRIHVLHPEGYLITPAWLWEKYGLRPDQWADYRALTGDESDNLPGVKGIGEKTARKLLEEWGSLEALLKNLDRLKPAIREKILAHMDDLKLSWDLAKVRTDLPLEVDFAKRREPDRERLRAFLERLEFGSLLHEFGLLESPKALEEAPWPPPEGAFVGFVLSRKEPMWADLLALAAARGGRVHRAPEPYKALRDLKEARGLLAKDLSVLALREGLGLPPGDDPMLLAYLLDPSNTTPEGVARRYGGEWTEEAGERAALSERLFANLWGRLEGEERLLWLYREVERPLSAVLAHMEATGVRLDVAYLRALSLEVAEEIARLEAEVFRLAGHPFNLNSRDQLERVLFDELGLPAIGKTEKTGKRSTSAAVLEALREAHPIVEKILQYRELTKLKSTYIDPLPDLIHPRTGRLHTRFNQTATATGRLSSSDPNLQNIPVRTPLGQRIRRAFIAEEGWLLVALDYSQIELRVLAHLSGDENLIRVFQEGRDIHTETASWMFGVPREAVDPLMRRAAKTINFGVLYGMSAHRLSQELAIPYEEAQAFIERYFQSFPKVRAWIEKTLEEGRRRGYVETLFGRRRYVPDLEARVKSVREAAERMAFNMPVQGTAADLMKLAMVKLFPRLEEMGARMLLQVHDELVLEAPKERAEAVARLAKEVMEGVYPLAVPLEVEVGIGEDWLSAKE

Question: How did the activity (% amplicon vs polymerase only) turn out when GR5 DNAzyme (71 nt) was run?
Answer: 50
